Assay results as given in patent US20120014936A1 (SHIRE HUMAN GENETIC THERAPIES, published 2012).

Biological target: the molecule itself
Assay: SEC-HPLC with light scattering, self-association (homodimer)

B1: recombinant human heparan N-sulfatase (rhHNS), mature form (enzyme)
chain: RPRNALLLLADDGGFESGAYNNSAIATPHLDALARRSLLFRNAFTSVSSCSPSRASLLTGLPQHQNGMYGLHQDVHHFNSFDKVRSLPLLLSQAGVRTGIIGKKHVGPETVYPFDFAYTEENGSVLQVGRNITRIKLLVRKFLQTQDDRPFFLYVAFHDPHRCGHSQPQYGTFCEKFGNGESGMGRIPDWTPQAYDPLDVLVPYFVPNTPAARADLAAQYTTVGRMDQGVGLVLQELRDAGVLNDTLVIFTSDNGIPFPSGRTNLYWPGTAEPLLVSSPEHPKRWGQVSEAYVSLLDLTPTILDWFSIPYPSYAIFGSKTIHLTGRSLLPALEAEPLWATVFGSQSHHEVTMSYPMRSVQHRHFRLVHNLNFKMPFPIDQDFYVSPTFQDLLNRTTAGQPTGWYKDLRHYYYRARWELYDRSRDPHETQNLATDPRFAQLLEMLRDQLAKWQWETHDPWVCAPDGVLEEKLSPQCQPLHNEL
notes: In the immunohistochemistry it was detected in fixed monkey tissue after intrathecal dosing; also called sulfamidase; human HNS
- binding result: binds
